In experiment [1] the target is T1, bovine ADAM10 disintegrin+cysteine-rich domain construct (D+C, residues 455-646) (bovine, UniProt Q10741 455-646).
T1 construct: range 455-646; also called ADAM10 D+C (b); bovine (b) ADAM10 D+C
T1 sequence (looked up): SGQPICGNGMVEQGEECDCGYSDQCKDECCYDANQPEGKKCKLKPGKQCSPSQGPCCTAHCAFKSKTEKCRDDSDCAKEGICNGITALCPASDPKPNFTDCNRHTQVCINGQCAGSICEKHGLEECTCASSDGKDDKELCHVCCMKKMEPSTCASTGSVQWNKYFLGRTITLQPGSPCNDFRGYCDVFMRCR
Description: ELISA, 1H5 IgG titrated on immobilised bovine ADAM10 D+C, absorbance 450 nm [cont.) E].

The target in experiment [2] is recombinant ADAM10 ECD (species not stated). Description: cell-based or functional assay.
The target in experiment [3] is T2, human ADAM10 expressed on the cell surface (LIM1215, COLO205, HEK293, HEK293 transfected with full-length … (human, UniProt O14672 214-748)).
T2 construct: whole, on cells; also called tumor-expressed ADAM10; ADAM10 expressed on HEK293 cells
T2 sequence (looked up): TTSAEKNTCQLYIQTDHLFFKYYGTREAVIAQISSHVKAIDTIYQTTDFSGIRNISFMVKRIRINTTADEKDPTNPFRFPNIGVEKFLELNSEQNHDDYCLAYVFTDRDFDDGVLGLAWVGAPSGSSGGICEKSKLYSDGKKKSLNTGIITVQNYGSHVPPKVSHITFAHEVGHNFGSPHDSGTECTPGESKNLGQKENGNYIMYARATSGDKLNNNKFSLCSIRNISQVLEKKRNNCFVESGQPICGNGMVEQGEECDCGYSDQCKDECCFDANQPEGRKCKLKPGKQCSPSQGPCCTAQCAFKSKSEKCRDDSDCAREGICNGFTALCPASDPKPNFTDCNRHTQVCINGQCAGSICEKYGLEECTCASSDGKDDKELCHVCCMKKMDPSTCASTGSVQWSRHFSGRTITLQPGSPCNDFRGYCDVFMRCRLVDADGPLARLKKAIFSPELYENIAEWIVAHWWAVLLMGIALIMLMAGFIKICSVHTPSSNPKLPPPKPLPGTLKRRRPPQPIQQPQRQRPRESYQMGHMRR
As to the kind of experiment: cell-based ELISA, 1H5 signal normalised to mAb1427 signal. On the procedure:
Briefly, 5×10⁴ cells/well were immobilized on 96-well ELISA plates (Greiner bio-one) with 1% paraformaldehyde for 2 hours at 37° C. The plate was washed thrice with PBS and blocked for 2 hours at room temperature with 4% non-fat dry milk. The anti-ADAM10 mAbs were added in varying concentrations. […] The data was recorded at 450 nm.
In general terms: In an ELISA, binding on a coated surface is turned into a signal by an enzyme label.

Experiment [4] addresses T3, recombinant ADAM10 ECD (species not stated).
T3 construct: extracellular domain; also called full recombinant ADAM10 ECD
Description: biolayer interferometry (data not shown).

Experiment [5] concerns the target T4, ADAM10 D+C domains construct (species not stated) (Bos taurus (Bovine), UniProt Q10741 455-646).
T4 construct: also called ADAM10 D+C antigen; isolated recombinant ADAM10 D+C region
T4 sequence: T1 sequence (looked up)
As to the kind of experiment: biolayer interferometry (data not shown). On the technique in general: BLI is a label-free optical method that tracks binding on a fibre tip over time.

Experiment [6] has as its target T5, human ADAM10 D+C (455-650) (human, UniProt O14672 455-650).
T5 construct: range 455-650; also called human (h) ADAM10 D+C; human (h) ADAM10 D-C
T5 sequence (looked up): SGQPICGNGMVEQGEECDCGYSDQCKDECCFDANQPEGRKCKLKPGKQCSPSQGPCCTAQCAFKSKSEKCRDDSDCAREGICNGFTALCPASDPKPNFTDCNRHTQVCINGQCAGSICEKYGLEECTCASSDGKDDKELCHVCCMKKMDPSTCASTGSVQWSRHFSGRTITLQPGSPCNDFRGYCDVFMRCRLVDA
Description: ELISA, 1H5 IgG titrated on immobilised human ADAM10 D+C, absorbance 450 nm [cont.) E].

Experiment [7] addresses T4, ADAM10 D+C domains construct (species …). As to the kind of experiment: ELISA, 1H5 Fab titrated on ADAM10 D+C, absorbance 450 nm. On the procedure:
To perform the competitive ELISA, wells were coated with 100 μl of ADAM10 D+C (concentration 2 μg/ml). After washes with phosphate buffer solution (PBS), the wells were blocked with 4% non-fat dry milk. […] Color was developed using a TMB substrate kit and data was recorded at 450 nm. […] The final concentration of each mAb in the mixture was the same as when added individually. The mixture was added to the wells and incubated for 1 hour.

B1: 1H5 IgG (fully human anti-ADAM10 monoclonal antibody) (antibody, V domains shown)
VH: QVQLVESGGGLVKPGGSLRLSCAASGFTFSDYYMSWIRQAPGKGLEWVSYISSSGSTIYYADSVKGRFTISRDNAKNSLYLQMNSLRAEDTAVYYCARDFYDSKIFDYWGQGTLVTVSS
VL: DIQMTQSPSSLSASVGDRVTITCRASQSISSYLNWYQQKPGKAPKLLIYAASSLQSGVPSRFSGSGSGTDFTLTISSLQPEDVGVYYCMEGLKTPFTFGPGTKLEIKR
notes: the amino acid entries 14 and 15 are used here; also called 1H5 mAb; mAb 1H5
For the molecule B1, the “EC50 (read off the curve)” value in experiment [1] and in experiment [6] was approximately 3 nM throughout. Further, the “augmentation of fluorogenic substrate peptide cleavage, relative to 8C7” value in experiment [2] is approximately 2 fold. For the same molecule, in experiment [3], the “fold better binding to tumor-expressed ADAM10 than to ADAM10 expressed on HEK293 cells” value was approximately 14 fold. The Kd in experiment [4] is approximately 200 nM; in experiment [5], 3.3 nM.

B2: 1H5 Fab (Fab, V domains shown)
VH: B1 VH
VL: B1 VL
notes: also called 1H5 Fab fragment; Fab fragment of 1H5
Consider B2, for which the EC50 in experiment [7] is 15 nM.

By EC50 (read off the curve) is commonly meant the concentration at which the effect is half-maximal. As a reminder, the Kd is the free concentration of one partner at which half of the binding sites on the other are occupied at equilibrium, for simple one-to-one binding. Usually EC50 stands for the concentration at which the effect is half-maximal.

(Values after patent publication US20260167677A1 (Memorial Sloan Kettering, published 2026).)
